System: kinases of Table 6 on Myelin Basic Protein (MBP)
Assay: Kinase assay using MBP substrate, ProQ Diamond stain (Table 6)
Format: biochemical
Details: kinase printed on MBP-coated slide; 20 uM ATP, 30° C.; ProQ Diamond Microarray Stain; graded Strong/Weak/Negative
Summary of the method: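 Reactions ran at 30° C. with 20 uM ATP, 4 mM MgCl2 and 5% DMSO in HEPES pH 7.5, inhibitor added or omitted. Kinases had been arrayed onto slide-bound dephosphorylated bovine MBP; phospho-signal read after ProQ Diamond staining.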

Molecule | MBP Kinase Activity
FGFR3 (protein, left off: small tags and cut ends) RLRSPPKKGLGSPTVHKISRFPLKRQVSLESNASMSSNTPLVRIARLSSGEGPTLANVSELELPADPKWELSRARLTLGKPLGEGCFGQVVMAEAIGIDKDRAAKPVTVAVKMLKDDATDKDLSDLVSEMEMMKMIGKHKNIINLLGACTQGGPLYVLVEYAAKGNLREFLRARRPPGLDYSFDTCKPPEEQLTFKDLVSCAYQVARGMEYLASQKCIHRDLAARNVLVTEDNVMKIADFGLARDVHNLDYYKKTTNGRLPVKWMAPEALFDRVYTHQSDVWSFGVLLWEIFTLGGSPYPGIPVEELFKLLKEGHRMDKPANCTHDLYMIMRECWHAAPSQRPTFKQLVEDLDRVLTVTSTDEYLDLSAPFEQYSPGGQDTPSSSSSGDDSVFAHDLLPPAPPSSGGSRT | Strong
FGFR4 (protein, left off: small tags and cut ends) RGQALHGRHPRPPATVQKLSRFPLARQFSLESGSSGKSSSSLVRGVRLSSSGPALLAGLVSLDLPLDPLWEFPRDRLVLGKPLGEGCFGQVVRAEAFGMDPARPDQASTVAVKMLKDNASDKDLADLVSEMEVMKLIGRHKNIINLLGVCTQEGPLYVIVECAAKGNLREFLRARRPPGPDLSPDGPRSSEGPLSFPVLVSCAYQVARGMQYLESRKCIHRDLAARNVLVTEDNVMKIADFGLARGVHHIDYYKKTSNGRLPVKWMAPEALFDRVYTHQSDVWSFGILLWEIFTLGGSPYPGIPVEELFSLLREGHRMDRPPHCPPELYGLMRECWHAAPSQRPTFKQLVEALDKVLLAVSEEYLDLRLTFGPYSPSGGDASSTCSSSDSVFSHDPLPLGSSSFPFGSGVQT | Strong
FLT1(VEGFR1) (protein, left off: a dimerising Fc or GST) RKMKRSSSEIKTDYLSIIMDPDEVPLDEQCERLPYDASKWEFARERLKLGKSLGRGAFGKVVQASAFGIKKSPTCRTVAVKMLKEGATASEYKALMTELKILTHIGHHLNVVNLLGACTKQGGPLMVIVEYCKYGNLSNYLKSKRDLFFLNKDAALHMEPKKEKMEPGLEQGKKPRLDSVTSSESFASSGFQEDKSLSDVEEEEDSDGFYKEPITMEDLISYSFQVARGMEFLSSRKCIHRDLAARNILLSENNVVKICDFGLARDIYKNPDYVRKGDTRLPLKWMAPESIFDKIYSTKSDVWSYGVLLWEIFSLGGSPYPGVQMDEDFCSRLREGMRMRAPEYSTPEIYQIMLDCWHRDPKERPRFAELVEKLGDLLQANVQQDGKDYIPINAILTGNSGFTYSTPAFSEDFFKESISAPKFNSGSSDDVRYVNAFKFMSLERIKTFEELLPNATSMFDDYQGDSSTLLASPMLKRFTWTDSKPKASLKIDLRVTSKSKESGLSDVSRPSFCHSSCGHVSEGKRRFTYDHAELERKIACCSPPPDYNSVVLYSTPPI | Strong
FLT3 (protein, left off: small tags and cut ends) HKYKKQFRYESQLQMVQVTGSSDNEYFYVDFREYEYDLKWEFPRENLEFGKVLGSGAFGKVMNATAYGISKTGVSIQVAVKMLKEKADSSEREALMSELKMMTQLGSHENIVNLLGACTLSGPIYLIFEYCCYGDLLNYLRSKREKFHRTWTEIFKEHNFSFYPTFQSHPNSSMPGSREVQIHPDSDQISGLHGNSFHSEDEIEYENQKRLEEEEDLNVLTFEDLLCFAYQVAKGMEFLEFKSCVHRDLAARNVLVTHGKVVKICDFGLARDIMSDSNYVVRGNARLPVKWMAPESLFEGIYTIKSDVWSYGILLWEIFSLGVNPYPGIPVDANFYKLIQNGFKMDQPFYATEEIYIIMQSCWAFDSRKRPSFPNLTSFLGCQLADAEEAMYQNVDGRVSECPHTYQNRRPFSREMDLGLLSPQAQVEDS | Strong
IGF1R (protein, left off: small tags and cut ends) RKRNNSRLGNGVLYASVNPEYFSAADVYVPDEWEVAREKITMSRELGQGSFGMVYEGVAKGVVKDEPETRVAIKTVNEAASMRERIEFLNEASVMKEFNCHHVVRLLGVVSQGQPTLVIMELMTRGDLKSYLRSLRPEMENNPVLAPPSLSKMIQMAGEIADGMAYLNANKFVHRDLAARNCMVAEDFTVKIGDFGMTRDIYETDYYRKGGKGLLPVRWMSPESLKDGVFTTYSDVWSFGVVLWEIATLAEQPYQGLSNEQVLRFVMEGGLLDKPDNCPDMLFELMRMCWQYNPKMRPSFLEIISSIKEEMEPGFREVSFYYSEENKLPEPEELDLEPENMESVPLDPSASSSSLPLPDRHSGHKAENGPGPGVLVLRASFDERQPYAHMNGGRKNERALPLPQSSTC | Strong
INSRR (protein, left off: a dimerising Fc or GST) YGKKRNRTLYASVNPEYFSASDMYVPDEWEVPREQISIIRELGQGSFGMVYEGLARGLEAGEESTPVALKTVNELASPRECIEFLKEASVMKAFKCHHVVRLLGVVSQGQPTLVIMELMTRGDLKSHLRSLRPEAENNPGLPQPALGEMIQMAGEIADGMAYLAANKFVHRDLAARNCMVSQDFTVKIGDFGMTRDVYETDYYRKGGKGLLPVRWMAPESLKDGIFTTHSDVWSFGVVLWEIVTLAEQPYQGLSNEQVLKFVMDGGVLEELEGCPLQLQELMSRCWQPNPRLRPSFTHILDSIQEELRPSFRLLSFYYSPECRGARGSLPTTDAEPDSSPTPRDCSPQNGGPGH | Negative
KIT (protein, left off: small tags and cut ends) TYKYLQKPMYEVQWKVVEEINGNNYVYIDPTQLPYDHKWEFPRNRLSFGKTLGAGAFGKVVEATAYGLIKSDAAMTVAVKMLKPSAHLTEREALMSELKVLSYLGNHMNIVNLLGACTIGGPTLVITEYCCYGDLLNFLRRKRDSFICSKQEDHAEAALYKNLLHSKESSCSDSTNEYMDMKPGVSYVVPTKADKRRSVRIGSYIERDVTPAIMEDDELALDLEDLLSFSYQVAKGMAFLASKNCIHRDLAARNILLTHGRITKICDFGLARDIKNDSNYVVKGNARLPVKWMAPESIFNCVYTFESDVWSYGIFLWELFSLGSSPYPGMPVDSKFYKMIKEGFRMLSPEHAPAEMYDIMKTCWDADPLKRPTFKQIVQLIEKQISESTNHIYSNLANCSPNRQKPVVDHSVRINSVGSTASSSQPLLVHDDV | Negative
MERTK (protein, left off: a dimerising Fc or GST) KRVQETKFGNAFTEEDSELVVNYIAKKSFCRRAIELTLHSLGVSEELQNKLEDVVIDRNLLILGKILGEGEFGSVMEGNLKQEDGTSLKVAVKTMKLDNSSQREIEEFLSEAACMKDFSHPNVIRLLGVCIEMSSQGIPKPMVILPFMKYGDLHTYLLYSRLETGPKHIPLQTLLKFMVDIALGMEYLSNRNFLHRDLAARNCMLRDDMTVCVADFGLSKKIYSGDYYRQGRIAKMPVKWIAIESLADRVYTSKSDVWAFGVTMWEIATRGMTPYPGVQNHEMYDYLLHGHRLKQPEDCLDELYEIMYSCWRTDPLDRPTFSVLRLQLEKLLESLPDVRNQADVIYVNTQLLESSEGLAQGSTLAPLDLNIDPDSIIASCTPRAAISVVTAEVHDSKPHEGRYILNGGSEEWEDLTSAPSAAVTAEKNSVLPGERLVRNGVSWSHSSMLPLGSSLPDELLFADDSSEGSEVLM | Strong
MET (protein, left off: small tags and cut ends) KKRKQIKDLGSELVRYDARVHTPHLDRLVSARSVSPTTEMVSNESVDYRATFPEDQFPNSSQNGSCRQVQYPLTDMSPILTSGDSDISSPLLQNTVHIDLSALNPELVQAVQHVVIGPSSLIVHFNEVIGRGHFGCVYHGTLLDNDGKKIHCAVKSLNRITDIGEVSQFLTEGIIMKDFSHPNVLSLLGICLRSEGSPLVVLPYMKHGDLRNFIRNETHNPTVKDLIGFGLQVAKGMKYLASKKFVHRDLAARNCMLDEKFTVKVADFGLARDMYDKEYYSVHNKTGAKLPVKWMALESLQTQKFTTKSDVWSFGVLLWELMTRGAPPYPDVNTFDITVYLLQGRRLLQPEYCPDPLYEVMLKCWHPKAEMRPSFSELVSRISAIFSTFIGEHYVHVNATYVNVKCVAPYPSLLSSEDNADDEVDTRPASFWETS | Strong
MUSK (protein, left off: a dimerising Fc or GST) CCRRRKQWKNKKRESAAVTLTTLPSELLLDRLHPNPMYQRMPLLLNPKLLSLEYPRNNIEYVRDIGEGAFGRVFQARAPGLLPYEPFTMVAVKMLKEEASADMQADFQREAALMAEFDNPNIVKLLGVCAVGKPMCLLFEYMAYGDLNEFLRSMSPHTVCSLSHSDLSMRAQVSSPGPPPLSCAEQLCIARQVAAGMAYLSERKFVHRDLATRNCLVGENMVVKIADFGLSRNIYSADYYKANENDAIPIRWMPPESIFYNRYTTESDVWAYGVVLWEIFSYGLQPYYGMAHEEVIYYVRDGNILSCPENCPVELYNLMRLCWSKLPADRPSFTSIHRILERMCERAEGTVSV | Negative
PDGFRA (protein, left off: a dimerising Fc or GST) KQKPRYEIRWRVIESISPDGHEYIYVDPMQLPYDSRWEFPRDGLVLGRVLGSGAFGKVVEGTAYGLSRSQPVMKVAVKMLKPTARSSEKQALMSELKIMTHLGPHLNIVNLLGACTKSGPIYIITEYCFYGDLVNYLHKNRDSFLSHHPEKPKKELDIFGLNPADESTRSYVILSFENNGDYMDMKQADTTQYVPMLERKEVSKYSDIQRSLYDRPASYKKKSMLDSEVKNLLSDDNSEGLTLLDLLSFTYQVARGMEFLASKNCVHRDLAARNVLLAQGKIVKICDFGLARDIMHDSNYVSKGSTFLPVKWMAPESIFDNLYTTLSDVWSYGILLWEIFSLGGTPYPGMMVDSTFYNKIKSGYRMAKPDHATSEVYEIMVKCWNSEPEKRPSFYHLSEIVENLLPGQYKKSYEKIHLDFLKSDHPAVARMRVDSDNAYIGVTYKNEEDKLKDWEGGLDEQRLSADSGYIIPLPDIDPVPEEEDLGKRNRHSSQTSEESAIETGSSSSTFIKREDETIEDIDMMDDIGIDSSDLVEDSFL | Strong
